Assay results reported in US7615380B2, “Methods for modulating an immune response by modulating KRC activity” (President and Fellows of Harvard College, priority 2001, dated 2009).
Where two headings read alike, the source gives them in different places.

B1: KRC tr: truncated KRC, amino acid residues 204 to 1055 of SEQ ID NO:2 (protein, listed as Homo sapiens)
chain: PSVLQKHIRSHTGERPYPCGPCGFSFKTKSNLYKHRKSHAHRIKAGLASGMGGEMYPHGLEMERIPGEEFEEPTEGESTDSEEETSATSGHPAELSPRPKQPLLSSGLYSSGSHSSSHERCSLSQSSTAQSLEDPPPFVEPSSEHPLSHKPEDTHTIKQKLALRLSERKKVIDEQAFLSPGSKGSTESGYFSRSESAEQQVSPPNTNAKSYAEIIFGKCGRIGQRTAMLTATSTQPLLPLSTEDKPSLVPLSVPRTQVIEHITKLITINEAVVDTSEIDSVKPRRSSLSRRSSMESPKSSLYREPLSSHSEKTKPEQSLLSLQHPPSTAPPVPLLRSHSMPSAACTISTPHHPFRGSYSFDDHITDSEALSRSSHVFTSHPRMLKPQPAIELPLGGEYSSEEPGPSSKDTASKPSDEVEPKESELTKKTKKGLKTKGVIYECNICGARYKKRDNYEAHKKYYCSELQIAKPISAGTHTSPEAEKSQIEHEPWSQMMHYKLGTTLELTPLRKRRKEKSLGDEEEPPAFESTKSQFGSPGPSDAARNLPLESTKSPAEPSKSVPSLEGPTGFQPRTPKPGSGSESGKERRTTSKEISVIQHTSSFEKSDSLEQPSGLEGEDKPLAQFPSPPPAPHGRSAHSLQPKLVRQPNIQVPEILVTEEPDRPDTEPEPPPKEPEKTEEFQWPQRSQTLAQLPAEKAPPKKKRLRLAEMAQSSGESSFESSVPLSRSPSQESNVSLSGSSRSASFERDDHGKAEAPDPSSDMRPKPLGTHMLTVPSHHPHAREMRRSASEQSPNVSHSAHMTETRSKSFDYGSLSLTGPSAPAPVAPPAGEAPPERRKCFLVRSPSLSRPP

Assays:
AP-1 = AP-1 luciferase reporter in Jurkat cells, KRC-enhanced transactivation after PMA plus ionomycin; type: cell-based, human; settings: pretreated with Rottlerin (10 μM), PMA plus ionomycin 6 hours
Experimental: FIG. 20(A) Jurkat cells were transiently transfected with AP-1 Luciferase reporter along with KRC and RasN17 DN vectors. 24 hours later cells were pretreated with Rottlerin (10 μM) and stimulated for 6 hours with PMA plus ionomycin. Luciferase activity was measured as above. FIG. 20(B) Jurkat cells were transfected with a GAL4 Luciferase reporter along with a GAL4 DNA binding domain, GAL4-ATF2, or GAL4-ELK1 with or without KRC. 24 hours later, cells were stimulated with PMA plus ionomycin and analyzed for Luciferase activity as above. FIG. 20(C) Jurkat cells were transiently transfected with FLAG-JNK2, and either Vector, KRC, or MKK7. 48 hours later, cells were stimulated with PMA plus ionomycin for 6 hours and JNK activity was determined by immunoprecipitation/kinase assay. Equal amounts of FLAG-Jnk2 protein were immunoprecipitated, as judged by anti-FLAG western blot (lower panel).
For each transfection, 5×10^6 Jurkat cells were incubated with either IL2-Luc, NFAT/AP1-Luc or AP1-Luc reporter DNA together with pEF vector or pEF-KRC and CMV-βGAL as normalization control in 0.4 ml of RPMI and transfected by electroporation (260 v, 975 uF). Transfected cells were cultured at 37° C. for 20 h in RPMI 1640 medium (Gibco BRL) supplemented with 10% fetal bovine serum. Transfected cells were stimulated with PMA (50 ng/ml) and ionomycin (2 uM) for 6 hours prior to luciferase (Promega) and β-galactosidase assays (Galacton-PLUS substrate system, TROPIX, Inc).

NFκB = NFκB luciferase reporter transfection assay in 293T cells; type: cell-based, human
Experimental: FIGS. 2(A)-2(C) depicts KRC preventing TRAF-dependent NFkB activation. Inhibition of TRAF2 (FIG. 2(A)), TRAF5 (FIG. 2(B)) and TRAF6 (FIG. 2(C)) mediated activation of NFkB by ectopically expressed KRC. 293 T cells (3×10^5 ) were transfected with 25 ng of NFkB luciferase reporter plasmid, 50 ng of CMVβGal and 1 μg of each indicated plasmid and 24 hours post transfection cells were harvested. Data from at least five experiments normalized for β galactosidase activity are shown. Vec refers to the empty MYC vector without the addition of TRAFs.
293 T cells (3×10^5 ) were transfected with 25 ng of NFκB luciferase reporter plasmid, 50 ng of CMVβGal and 1 μg of each indicated plasmid and 24 hours post transfection cells were stimulated for 4 hours with 10 ng/ml of TNFα. (A) KRC and KRC tr (B) dominant negative and antisense KRC (C) antisense KRC in the presence of exogenous TRAF2. Data from at least five experiments normalized for β galactosidase activity are shown.
HEK293 cells ([…] per well) were seeded in 6 well plates, and 12 h later cells were transfected with EFECTENE™ (Qiagen) with 25 ng of a 2XNFκB-luciferase (Luc) reporter gene plasmid and 0.5 μg of the indicated TRAF and KRC expression vectors. Total amounts of transfected DNA were kept constant by supplementing with control empty expression vector plasmids as needed. Cell extracts were prepared 24 h after transfection, and reporter gene activity was determined via the luciferase assay system (PROMEGA). PRSV-βGal vector (50 ng) was used to normalize for transfection efficiency by measuring β galactosidase activity using the Galacton-PLUS substrate system (TROPIX, Inc.). Whenever indicated, the cells were treated for 4 hours with TNFα or IL-1 (10 ng/ml). To generate stable transfectants, EFECTENE™ mediated transfection of the RAW cell line was performed and clones were selected and maintained in complete medium supplemented with G418 (2 mg/ml).

NIH 3T3 cells = assay: β-galactosidase cotransfection apoptosis assay in 3T3 cells; type: cell-based; settings: TNFα 20 ng/ml
Experimental: 3T3 cells were cotransfected with CMV lacZ vector (300 ng per plate) and either empty expression vector or the expression vectors indicated (2 μg of each). Half of the transfected cultured cells were treated with TNFα (20 ng/ml) at 12 hours after the transfection and the other half left untreated. All the cells were fixed and stained at 36 hours after the transfection. The number of blue cells in each transfection was determined by counting six different fields. A representative experiment of three performed is presented.
β-galactosidase cotransfection assays for determination of cell death were performed as described (Hsu, et al.). Transfected NIH 3T3 cells were washed with PBS, fixed in PBS containing 3% paraformaldehyde for 10 min at 4° C., and washed with PBS. Fixed cells were stained overnight with XGal. The number of blue-stained cells was determined microscopically. The average number from one representative experiment of three is shown.

JNK = JNK in vitro kinase assay after transfection of 293 cells; type: cell-based, human; settings: 293 cells cotransfected with TRAF2, 24 hours
Experimental: Inhibition of TRAF2 (A) and TNFα (B, C) mediated JNK/SAPK activation by ectopic expression of KRC. (A) 293 T cells were transfected with 400 ng of TRAF2 and 2 μg of the indicated expression vector. Twenty-four hours after the transfection, the cells were harvested and lysed, and the endogenous JNK was precipitated with 5 μg of GST-cJUN (1-79) for 4 hours. JNK activity was determined by using GST-cJUN (1-79) as a substrate. (B,C) 293 T cells were cotransfected with vectors encoding HA-tagged JNK2 (500ng) and the indicated expression vector (2 μg). Twenty-four hours after the transfection cells were stimulated for 10 min with 10 ng/ml of TNFα and cells harvested at varying time points. JNK activity was assayed with GST-cJUN (1-79) as substrate.
Anti-HA or anti-FLAG immunoprecipitates were used for immune complex kinase assays that were performed at 30° C. for 30 min with 1 μg of substrate, 10 μCi of γ^32 P ATP, and 10 μM ATP in 30 μl of kinase buffer (20 mM HEPES, pH 7.4, 10 mM MgCl2, 25 mM β-glycerophosphate, 50 μm NA3VO4, and 50 μm DTT). The substrate was GST-c-JUN.

c-Jun = molecular target: T1, c-Jun (Homo sapiens, UniProt P05412); assay: Coimmunoprecipitation / in vitro pull down with c-Jun; type: binding
T1 construct: expressed in transfected cells; host or cells: 293T cells (co-IP); in vitro translated, 35S-labelled c-Jun in the pull-down
Experimental: FIG. 21(A) 293T cells were transfected with c-Jun and myc-KRCtr. 48 hours later, lysates were immunoprecipitated with anti-Myc antibody. Immunoprecipitates were probed by western blotting with anti-c-Jun antibody. FIG. 21(B) (left panel) 293T cells were cotransfected with c-Jun and full length His-KRC. 48 hours later, lysates were immunoprecipitated with anti-His antibody (DE8 Omniprobe) and precipitates were probed by western blotting with anti-c-Jun antibody. (right panel) In vitro translated and S35-labelled c-Jun and His-KRCtr were mixed and immunoprecipitated with anti-His antibody. Recovered c-Jun protein was visualized by autoradiography. FIG. 21(C) Jurkat or EL4 T cells were stimulated with PMA plus ionomycin for 45 minutes. Lysates were immunoprecipitated with anti-c-Jun antibody, and immunoprecipitates were probed with specific anti-KRC rabbit antisera. FIG. 21(D) (upper panel) 293T cells were transfected with AP-1 Luciferase along with c-Jun, c-Fos, and KRC. 24 hours later, Luciferase activity was determined as above. (lower panel) 293T cells were transfected with GAL4 Luciferase along with GAL4, GAL4-c-Jun 1-224, or GAL4-c-Fos 208-313. 24 hours later, luciferase activity was determined as above. […]

T1 sequence (P05412 whole entry): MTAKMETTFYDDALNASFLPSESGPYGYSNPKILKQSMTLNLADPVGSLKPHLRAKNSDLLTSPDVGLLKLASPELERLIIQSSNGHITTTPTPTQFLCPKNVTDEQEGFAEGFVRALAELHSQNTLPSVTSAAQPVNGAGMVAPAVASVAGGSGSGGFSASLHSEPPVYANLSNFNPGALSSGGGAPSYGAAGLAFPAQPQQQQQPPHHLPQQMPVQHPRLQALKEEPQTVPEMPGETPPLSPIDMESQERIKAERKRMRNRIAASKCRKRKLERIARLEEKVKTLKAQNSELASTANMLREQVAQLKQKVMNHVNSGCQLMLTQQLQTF

Molecule	KRC transactivation of the AP-1 reporter (AP-1)	KRC transactivation of the AP-1 reporter (AP-1; listed as rottlerin)	NFκB activation induced by TRAF5 and TRAF6 (NFκB; 293T cells)	NFkB-dependent transactivation (NFκB; 293T cells, absence of exogenous TRAFs)	TRAF2-induced NFκB activation (NFκB; 293T cells, exogenous TRAF2)	TNFα-induced NFκB activation (NFκB; 293 cells, 10 ng/ml TNFα 4 hours)	TNFα-induced apoptosis (TNF mediated cytotoxicity) (NIH 3T3 cells)	TRAF2-dependent JNK activation (JNK)	physical association with c-Jun (c-Jun)	physical association with c-Jun (c-Jun; listed as KRCtr)
CC(=O)c1c(O)c(C)c(O)c(Cc2c(O)c3c(c(C(=O)/C=C/c4ccccc4)c2O)OC(C)(C)C=C3)c1O [Rottlerin]	blocked	abolished the ability of KRC to enhance AP-1 transactivation								
RasN17: dominant negative Ras	abolished the ability of KRC to enhance AP-1 transactivation									
B1			substantially but not completely affected	blocked NFkB-dependent transactivation	blocked TRAF2-induced NFκB activation	strongly inhibited TNFα-induced NFκB activation	The same effect was observed	blocked TRAF2-dependent JNK activation	physically associated with c-Jun	interacted with c-Jun
